Molecular target: Tula virus (TULV) Gn glycoprotein on virions (Tula virus (TULV), strain Moravia)
Assay: cryo-EM structure

**Q.** With “Tula virus (TULV) Gn glycoprotein on virions (natural protein)” as the substance, how does the stoichiometry N read?
**A.** 4
